Reference: paper PMC5040590
Values belong to the substance of their own block, whether it stands above or below them.

Assays:
[1] = target: r-synGAP-α1 (soluble, recombinant synGAP-α1, residues 103-1293) (rat); assay: pull-down; as a1, with or without Ca2+/CaM during the incubation with PDZ resin (legend: 0.7 mM CaCl2/3.4 μM CaM; methods: 2.5 µM CaM and 0.5 mM CaCl2); 500 nM r-synGAP-α1, 60 min, 25°C
[2] = target: r-synGAP-α1 (soluble, recombinant synGAP-α1, residues 103-1293) (rat)
[3] = target: PDZ123 domain-HaloTag fusion on HaloLink resin (PDZ123 affinity resin) (UniProt Q62108); assay: PDZ123 affinity resin binding (pull-down, eluate quantified); conditions: phosphorylated 0.5 min with 10 nM CaMKII, 0.7 mM CaCl2/3.4 μM CaM; resin 60 min at 25°C; n = 4; parent: est. 0.0079; read off a plot
[4] = target: PDZ123 domain-HaloTag fusion on HaloLink resin (PDZ123 affinity resin) (mouse) (UniProt Q62108); assay: pull-down; PDZ domain-HaloTag fusions on HaloLink resin (20 µl); r-synGAP-α1 500 nM, 200 µl, 60 min, 25°C; 25 mM Tris pH 7.0, 150 mM NaCl, 1 mM MgCl2, 0.5 mM TCEP, 0.2% Tergitol, 0.5 mM EDTA; bound protein eluted, SDS-PAGE, Gel Code Blue, quantified
[5] = target: r-synGAP-α1 (soluble, recombinant synGAP-α1, residues 103-1293) (rat); assay: SPR; 'competition in solution': 25 nM r-synGAP-α1 pre-equilibrated with 0-10 µM soluble PDZ domain; free r-synGAP-α1 captured on the same PDZ domain amine-coupled to a CM5 chip; Biacore T200, HBS-EP+, 25°C; single-site fit
[6] = target: CaM-Sepharose 4B (calmodulin on Sepharose resin) (UniProt P62157); assay: pull-down; equilibrium binding of purified synGAP (1-500 nM, 300 µl) to 50 µl CaM-Sepharose 4B, 60 min; 50 mM Tris pH 7.5, 200 mM NaCl, 5 mM TCEP, 2 mM CaCl2; bound protein by quantitative immunoblot; hyperbolic fit
[7] = target: PDZ3 of PSD-95 (residues 302-402), soluble recombinant (mouse) (UniProt Q62108); assay: SPR; conventional Biacore assay: varying concentrations of r-synGAP-α1 applied to a chip with immobilised PDZ domain; one experiment
[8] = target: calmodulin (CaM), with Ca2+ (UniProt P62157); assay: SPR; CaM amine-coupled to a CM5 chip (50 RU); synGAP injected in HBS-EP+ with 10 mM CaCl2, 25°C, 100 µl/min; equilibrium analysis

percent reduction of binding of r-synGAP-α1 to PDZ3 with Ca2+/CaM [1]: 25% | rate and stoichiometry of phosphorylation of r-synGAP-α1 by CDK5/p35 or CDK5/p25 in the presence of Ca2+/CaM (0.7 mM CaCl2, 3.4 μM CaM) [2]: 2 fold
Substance: calmodulin (CaM), with Ca2+ (from UniProt P62157 1-149) (natural protein)

response (pmol r-synGAP-α1/pmol PDZ domain) [3]: 0.0099
Substance: r-synGAP-α1 phosphorylated by CaMKII for 0.5 min S1123D

decrease of binding relative to unphosphorylated r-synGAP-α1 [4]: 40%
Substance: r-synGAP-α1 phosphorylated by PLK2 for 10 min (domain or fragment)

response (pmol r-synGAP-α1/pmol PDZ domain) [3]: 0.011
Substance: r-synGAP-α1 phosphorylated by CaMKII for 0.5 min S1283D

Kd [5]: 1500 nM
Substance: PDZ2 of PSD-95 (residues 155-249), soluble recombinant (from UniProt Q62108 155-249) (domain or fragment)

response (pmol r-synGAP-α1/pmol PDZ domain) [3]: 0.014
Substance: r-synGAP-α1 phosphorylated by CaMKII for 0.5 min S1093D; S1123D; S1283D

Kd [6]: 31 nM | Kd [7]: 730 nM | Kd [8]: 9 nM | amount bound per individual PDZ domain, relative to PDZ1 or PDZ2 alone [4]: 4 fold | amount bound per individual PDZ domain, relative to PDZ3 alone [4]: 2 fold
Substance: r-synGAP-α1 (soluble, recombinant synGAP-α1, residues 103-1293) (domain or fragment)

Kd [5]: 620 nM
Substance: PDZ3 of PSD-95 (residues 302-402), soluble recombinant (from UniProt Q62108 302-402) (domain or fragment)

response (pmol r-synGAP-α1/pmol PDZ domain) [3]: 0.0083
Substance: r-synGAP-α1 phosphorylated by CaMKII for 0.5 min S1093D; S1123D
